{"source": "the DeepSol protein solubility set", "data": [{"test": "soluble on expression in E. coli; label from the status in PepcDB or PDB records", "values": [{"sequence": "MGSDKIHHHHHHMSKNDLADLLRVGPETTMGKFMRQYWLPAVLSHEVKADGDPVRLMLLGEKLIAFRDSSGRVGVLDHRCPHRCASLFVGRNEENGIRCVYHGWKFDVDGNCVDMPSVPARLDFKEKVHARAYKAVERNGLIWVYMGENQNNPPPLPAIEANMIPGSKIWCLQRQCNWLQALEGDIDTSHVGFLHVGALQPEDLPEGSPLRPTVLNRAPEYRVQNAEWGATYGAYRLAEDGRMSWRAAQFMFPFWTMTPNILFSTRAIARAWVPMDDTHVMLFDITGGVDEGNPFFTTKLKNGEPMYEKIRRKPNGTGWYDRWLPVDGLQNDWGIDREAQRNMIHYTGIDNPSMQDQAITESMGPITDHSFEHLAPTDQMIAFVRRRLTQALRNFRDDSAPAPCAFSPETYFGARSGAFWADPVVEFSTAYRVELEKAQRWPANPDGSAVEREPEVAR", "soluble on expression in E. coli": "not soluble"}, {"sequence": "MAFRMSRDHADFVAHGGTEWDDGAFVNVKKIKIFHDWAGITLVQFDYIDGTGAIVSGLDHGTEPFQFDREHGRVPVEGARAEFWLRDDEYITIVTAFGGYCVRKIEFITNKRTFDFGGFN", "soluble on expression in E. coli": "soluble"}, {"sequence": "MIGSYLKIDSKPLSYQSSKAVLKHLDYNSRFQLHEQCPSLRNVLKVTPGFLNRLEFVGDCVKINGTTYQLKMTPVKLGSTTNHIQLWINGNLYAKTVSEPQNNKELAYLVCKLLRQAWEAVLYVGTLVYGNLIFPGFPKFFKFHVQHLVIGKDQDASDVLRRFGENFQNSSFKSLELFRTSSFEVPLIQSAEKLIINERMDLSALKSRRVHVEFKIDSKFLTDLIDCWLWNGAVGKTEKEAGSVFIFAMKGFREARMFVDDVKMKFEGKFYVDKR", "soluble on expression in E. coli": "not soluble"}, {"sequence": "MRCKGFLFDLDGTLVDSLPAVERAWSNWARRHGLAPEEVLAFIHGKQAITSLRHFMAGKSEADIAAEFTRLEQIEATETEGITALPGAIALLNHLNKAGIPWAIVTSGSMPVARARHKIAGLPAPEVFVTAERVKRGKPEPDAYLLGAQLLGLAPQECVVVEDAPAGVLSGLAAGCHVIAVNAPADTPRLNEVDLVLHSLEQITVTKQPNGDVIIQ", "soluble on expression in E. coli": "not soluble"}, {"sequence": "MPDNEVDLLFAQLSPEDLIEWSDYLPESFTDRALAQMGERQRQRFELYDQYSENEIGRYTDHQMLVLSDKATVAQAQRFFRRIELDCNDNLFIVDEADKYLGTVRRYDIFKHEPHEPLISLLSEDSRALTANTTLLDAAEAIEHSREIELPVIDDAGELIGRVTLRAATALVREHYEAQLMATAGMDESDDLFAPILKGAQRRAV", "soluble on expression in E. coli": "soluble"}, {"sequence": "MGSDKIHHHHHHMTEEKESLAGRQWLVDKVDNSIKEGQTAIPAIENGICQRCGSSCWVRLPSGFLYCRACVGLGRLDEGKLLVRQAAGSHYPARAGMTWTGQLQERQEGVSRFLLEKFAAKEDCLVEAVTGAGKTEMIFPLLAEAFSCGCRVAIATPRIDVVNELYPRLVAAFGEVEIGKYHGREEKEAANEQLVICTTHQLLKYYQAFDLLIIDEIDSFPYAGNPQLHFAAGNAVKKTGSQVFLTATPPEDLLKAARQGKLAIVRLNRRFHCYPLPVPRLDLYVKPFLTKGRLHPKLARRIKMAAKSGHPLLVFLPRIAQMPQYFAAVKRLLPDLRLATVYAQDPDRLEKVEKFRKGDLDLLLTTTILEGGVTLSMSG", "soluble on expression in E. coli": "not soluble"}, {"sequence": "MSLNKLEKEASVFFKKNQESVSQDFKKKVSSIEMFSTSLNSEENQSLDRLFLSETQNLSDEESYQEDVLSVKLLTSQIKAIQKQHVLLLGEKIYNARKILSKSCFSSTTFSSWLDLVFRTKSSAYNALAYYELFISLPSTTLQKEFQSIPYKSAYILAARKGDLKTKVSVIGKVCGMSNASAIRVMDQLLPSSRSKDNQRFFESDLEKNRQLSDLLVELLRIVCSGVFLSPYNENLLQQLFEVYKQKSEGHHHHHH", "soluble on expression in E. coli": "soluble"}, {"sequence": "MAHHHHHHMILRTAGASNVYSVFAYPGTGKARDMLTTETADTSGSESGNLTNVRARHCAHFQFNKMCNLGESCNFIHSLVPYVQRLSMSSQGPLYNSIVTQRPLLMPSTSMAHFSRFPNGNNNNGVVSSYSMEFMQPSMLHVSPQTQQQQQQQKQQQKQQQKQLHQQPQHAMPPPPPTVSHLIPSPQPSEHLMYQSNMSMMSLPMYMSSPISSTWDGVRYGANYQ", "soluble on expression in E. coli": "not soluble"}, {"sequence": "RGSLTIYIGYSPGVGKTFEMLSNAIELFQSNVDIKIGYIEPHQRDETNALAEQLPKITTNFTKHGSHHFQYLDVDRIIEESPTIVLIDELAHTNISRDRHEKRYMDIEEILNHGIDVHTTLNIQHIESLSSQIELMTGVHVKERVPDYFIMSADVLEVVDISPEQLIKRLKAGKVYKKDRLDVAFSNFFTYAHLSELRTLTLRTVADLMSDKEKVRHNHKTS", "soluble on expression in E. coli": "not soluble"}, {"sequence": "MGSDKIHHHHHHMKKLLFIVNVDWFFISHRLPIAIDALKKGYTVTIACHFTSHKQELIDMGFNVLEIPFSRSGAGILSELNTLKCIRKVINDVNPSLIHAVTIKPVLYTGLVLKSINRNIPFVAAISGLGYVFTASTLRAKLTRFIASAFYKVALSQKYKMVIFQNTSDENILTKVAKLESSDKFLIKGSGADLSVYNFSPENLDNRTSIVMACRLLREKGVYVYVDAAKLVKEHFPEAEFLLVGTPDLENPNTVKQVEIDQWVSDGTIKYLGHRNDIPSIFANSNIVCLPSFYGEGVPKVLIEAAACGRAIVTTDNPGCKDAIINEVTGIAVPVRDAQSLALAIIKLLDDPALRISMGKKGRSFAEQEFDVRAVVTKHLDIYNELLQK", "soluble on expression in E. coli": "not soluble"}, {"sequence": "MSLNNVIFSQKLYDTAQMIVDGCMGDADPACQTACPMHTDVKQYVRMAGEGNFQGALDLIRSKLFLPQTLGRICAHPCEASCRRNTEFGQPISVAGIKRFVAEKMDNQDHWDLNIAPLTNKHIAIVGAGPAGAQAAIELRRQGHEVTIYEKLDVYGGMMRVGIPEYRLPRDVIDFEYSYLAMLGIKTQFGVEIGKDISFDTLRSEHDAVILAHGAHVGSIIPLPGHDNDGVFSAVEYLKEISETRQFPRACKRVMVIGGGDVAMDCARSSWRIGASDVYQCSLESLESLPASQIEIDESLEEGVEFNAGWGPVAIEHENGKVTGITIKKVLSIFDEQGNFAPQYSEESKTISVDTVVFATGQIVADITDGALEQTRGGRYVVDKQTLASSLEDVFVAGDACGGNIVIEAMALGRKAAMSVERFLTARPLTEDREGHHHHHH", "soluble on expression in E. coli": "soluble"}, {"sequence": "MGSDKIHHHHHHMSDITSKVSLTNVAADNTVSSEQAKDINSIGQDLGIDMMASLQQAPFDEMLIREYLLDNPDFFNRYPELLVAMRVPHAERGAVSLVERRQELLRQRVSQLEEEITSLMNIATHNEKIFKFNTELSFKMLASQDLGELRLVLSEGLKNEFGFSHVRLITVHDIDSELAKIWRHRVQSGYYFGRLTQSESKRLFGSEVGSVALTKLSDENGQVIFAIASNDPTHFHPDMDSLLFSQLRRLLDHMLPKM", "soluble on expression in E. coli": "not soluble"}, {"sequence": "MEVPSLFTNFFAVNNPDSPPARQKTKLRELEHRFWQEHLPGDDDDHSTAISSLAIVTGLTKAQVSRISIAFATLADLPELKALQQKLYHLDLSRLITISNELAGINPDNLAGADAILTEYLTATSPNQILPSPASIGRKIKEIRDLLDDARATGSRGTQDDSSFGVTFSPDGTAEIGASVDAVDGHIINDAVTQHAKKNDLTYGEAFSDILRNNIQVKVVLNLYTAKDLANAPVWASGIGWLDAKTGTFWSEKANKEQDMDAAAKISTDKHDPPPALRDALIGRDGTCRFPGCSVPALKTQADHRIPYEEGGETCLGGIGCLCQHHHNMKTDGRVTYLLDPFSGIIVWLMGDGTWAVSEPNGPLNPKNARWAQTVAQHRARHHKRWVKEDAKLEHHHHHH", "soluble on expression in E. coli": "not soluble"}, {"sequence": "MSGARRDNRRSNGRDDSSRVAKAENDRKPGRENRGGDEKRGNSNNAARSGGGGGGNRGGAERGIAPAQQPYDNNGGHRSGGGGGRSGGGGTSFNGAAFTESQLMDEVPKKKFTGRCRLFVGNLPNEVKETELKELFSPHGDIAECYLSGKGFAFLRLDTRAHAESAKEAIDGRIIHGRQVRVRFAVHGAAIRVKELSPTVSNEMLYHAFSHFGDVERAVHIVDEKGRPTGEGIVEFERKPNCNEAMAAIRDKVFLLTASPKPLICEVLEPRDEDDGLAERMIPRTPGLSKERELGPRFPTPNSFEYVYGMKWKELYVVEQKRRAQLDEELRESRRRLESDMELAYQDYQAQMLREDLQRRQQELERLEAARRERMRGLGGPPPGMPGGVPPQAQPFNPHGGSMFGGPGGPGGPPPFGQPFQQAPQGMFNVPTGPPPLMGGGGDPRGPPGGMGGPPGHGGMGGPPGHGGQGGPPGHGGMGGPPPGQGGPGVRETWRSWRNASKSHGRSNMIEGVQRLLQIFKSDNGPPGGMPGRDYPPQQGPGGMFGSYGDGGYPPEKKQRR", "soluble on expression in E. coli": "not soluble"}, {"sequence": "MSLAQISKYKRVVLKLSGEALAGEKGFGINPVIIKSVAEQVAEVAKMDCEIAVIVGGGNIWRGKTGSDLGMDRGTADYMGMLATVMNALALQDSLEQLDCDTRVLTSIEMKQVAEPYIRRRAIRHLEKKRVVIFAAGIGNPYFSTDTTAALRAAEVEADVILMGKNNVDGVYSADPKVNKDAVKYEHLTHIQMLQEGLQVMDSTASSFCMDNNIPLTVFSIMEEGNIKRAVMGEKIGTLITKEGHHHHHH", "soluble on expression in E. coli": "soluble"}, {"sequence": "MSLKSIILEDANAKLREDAHTFVFDGHAGVKGRVDFARLGSNNPIEDDWDLKIAKGVGGTKTLYAGVYDGHAGWATSQVLRNALVPYVSGALSSLTPTTSTELVDDAIQKAFVRLDNRIFDTALKAVESGLDQGTASVISAVAPAIAGSCALLTMYEPVTSTLRTAVAGDSRAVRGAWSSNANKYETDILSIDQTGFNQLEVERLDKEHPGQLHSMLNLDSGRLFGLAVTRAFGDHRLKWPAKVIRKVQDDYYGTPPRPNYTTPPYLTARPEVTTRKIQTEDFVILGSDGLWDMISNEDAVTCISRWLSAKKSGKPEPFKETKFEGKLEDGWQATPEHHVIEDLDNAAVCLVKNAFGGSRRGLFLGAMTTYAPMSRNVRDDITVQIIFFKDPYEKEGHHHHHH", "soluble on expression in E. coli": "soluble"}, {"sequence": "SQRRGQLSRRLVNSADRDPSDENSLSRAPAPACTSRGTHVVETTSLKRHSKVLRSQDASGTAESVNSQTPDDEVDHTLWTLVREVSDAEAAFWALRNDSRLLGFVLRSQLLALVHDDSSVTDFLEAAQQPTDVGDVQAEFILCWVPVPGGPAILWRADYQRLIEEQVARRLSELEDPARKAALWGTTREQVERDTHIRAADGSCWLRTLPCPPSVIRALTQGQKALVQQVKRMGRYGRLPLHRAELLRLSRTCFSARFHILDAVGCGTLALDAQNTLSKEPYLCLPEVRTTNIVDSGEIGF", "soluble on expression in E. coli": "soluble"}, {"sequence": "SEASFVQTTMALGLSSKKASSRNVAVERKNLITVCRFSVKTLLEKYTAEPIDDSSEEFVNFAAILEQILSHRFKACAPAGPVSWFSSDGQRGFWDYIRLACSKVPNNCVSSIENMENISTARAKGRAWIRVALMEKRMSEYITTALRDTRTTRRFYDSGAIMLRDEATILTGMLIGLSAIDFSFCLKGEVLDGKTPVVIDYTPYLKFTQSYDYLTDEEERHSAESSTSEDNSPEHPYLPLVTDEDSWYSKWHKMEQKFRIVYAQKGYLEELVRLRESQLKDLEAENRRLQLQLEEAAAQNQREKRELEGVILELQEQLTGLIPSDHAPLAQGSKELTTPLVNQWPSLGTLNGAEGASNSKLYRRHSFMSTEPLSAEASLSSDSQRLGEGTRDEEPWGPIGSSEPN", "soluble on expression in E. coli": "soluble"}, {"sequence": "MTLAVLASRAIAGWQAPAVRVETHLGSGLPAFAIVGLPDVEVRESRERVRAAIQNSGFDFPPGRITVNLSPADLPKASARFDLPIALGILLASGQVAASAAQTAALPDCVWAAELSLSGALVPLAAPLALALAVAREQPGATLVLPAGSAAVAAWVPGIRVLAAHTLGEAAAYLAGHAELAPAERRSWPEAEPGPCLSDVRGQPAARRALEVAAAGGHSLLMCGPPGAGKSMLAQRLPGLLPPLEQRQALEVAAIAGAGGAPEVLRGQPPFRAPHHSASAAALVGGGARPRPGEISLAHHGVLFLDELPEFERRALESLREPLETGKVVISRALHSVEYPAVFQLVAAMNPCPCGWRGHASKACRCTPDQVRRYAARVSGPLVDRIDLWIELPATEPQWLAEPPGEPSLPVRERVARCRQRQLARQGCLNAKLSGPALDAHCALGAAARTLLQQAMRRLGGSARAAHRALRVARTLADLAHEPEIGAAHIAEAVQYRRPT", "soluble on expression in E. coli": "not soluble"}]}]}
